Experimental data taken from the supplement of paper PMC9112550, “Optimization of the antimicrobial peptide Bac7 by deep mutational scanning” (BMC Biology, 2022).
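Further: peptides expressed intracellularly from a pBAD plasmid library in pooled LB shake-flask culture, induced with 0.3% L-arabinose, DNA abundance read by NGS, three biological replicates, DESeq2 with apeglm shrinkage.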

What follows are sequences tested on Escherichia coli TOP10 (assay: shrunken log2 fold change of peptide-encoding DNA abundance (4.5 h post-induction vs induction); higher = less antimicrobial activity (less host growth inhibition)). Details: time post-induction: 4.5 h; library: site-saturation at positions 5, 18, 19, 20.
RRIRLRPPRLPRPRPRPWYNPRP was tested, and the “shrunken log2 fold change” value was 0.111.
In the case of RRIRMRPPRLPRPRPRPIYQPRP, the “shrunken log2 fold change” value is reported as -0.236.
For RRIRFRPPRLPRPRPRPVYIPRP, the “shrunken log2 fold change” value was -1.22.
For RRIRHRPPRLPRPRPRPHTWPRP, the “shrunken log2 fold change” value was -0.301.
With RRIRVRPPRLPRPRPRPENKPRP the “shrunken log2 fold change” value was -0.134.
In the case of RRIRCRPPRLPRPRPRPKSMPRP, the “shrunken log2 fold change” value is reported as -0.541.
RRIRMRPPRLPRPRPRPLSCPRP was tested, and the “shrunken log2 fold change” value was 0.163.
RRIRPRPPRLPRPRPRPKTDPRP was tested, and the “shrunken log2 fold change” value was -0.0446.
RRIRFRPPRLPRPRPRPLQIPRP was tested, and the “shrunken log2 fold change” value was -0.384.
With RRIRCRPPRLPRPRPRPTYFPRP the “shrunken log2 fold change” value was -0.0696.
RRIRRRPPRLPRPRPRPYLGPRP was tested, and the “shrunken log2 fold change” value was -0.276.
RRIRYRPPRLPRPRPRPDVTPRP was tested, and the “shrunken log2 fold change” value was -0.00733.
With RRIRFRPPRLPRPRPRPWEKPRP the “shrunken log2 fold change” value was -0.0348.
For RRIRNRPPRLPRPRPRPKYHPRP, the “shrunken log2 fold change” value was -0.442.
For RRIRYRPPRLPRPRPRPVSWPRP, the “shrunken log2 fold change” value was 0.106.
In the case of RRIRMRPPRLPRPRPRPCNAPRP, the “shrunken log2 fold change” value is reported as 0.0226.
With RRIRFRPPRLPRPRPRPFKMPRP the “shrunken log2 fold change” value was 1.77.
For RRIRRRPPRLPRPRPRPFIMPRP, the “shrunken log2 fold change” value was -0.251.
In the case of RRIRIRPPRLPRPRPRPTRMPRP, the “shrunken log2 fold change” value is reported as 0.0519.
With RRIRERPPRLPRPRPRPKHKPRP the “shrunken log2 fold change” value was -0.344.
In the case of RRIRVRPPRLPRPRPRPWKPPRP, the “shrunken log2 fold change” value is reported as 0.0596.
RRIRWRPPRLPRPRPRPHDSPRP was tested, and the “shrunken log2 fold change” value was -0.122.
For RRIRIRPPRLPRPRPRPYTKPRP, the “shrunken log2 fold change” value was -0.203.
In the case of RRIRKRPPRLPRPRPRPTYWPRP, the “shrunken log2 fold change” value is reported as 0.141.
With RRIRPRPPRLPRPRPRPILKPRP the “shrunken log2 fold change” value was -0.14.
RRIRFRPPRLPRPRPRPTSLPRP was tested, and the “shrunken log2 fold change” value was -1.17.
With RRIRYRPPRLPRPRPRPLEQPRP the “shrunken log2 fold change” value was -0.121.
RRIRVRPPRLPRPRPRPIHHPRP was tested, and the “shrunken log2 fold change” value was -0.723.
With RRIRFRPPRLPRPRPRPQWCPRP the “shrunken log2 fold change” value was -0.0514.
In the case of RRIRERPPRLPRPRPRPMEKPRP, the “shrunken log2 fold change” value is reported as -0.0775.
RRIRFRPPRLPRPRPRPHAIPRP was tested, and the “shrunken log2 fold change” value was 0.00598.
RRIRSRPPRLPRPRPRPCHQPRP was tested, and the “shrunken log2 fold change” value was -0.0637.
RRIRCRPPRLPRPRPRPRERPRP was tested, and the “shrunken log2 fold change” value was 0.875.
RRIRLRPPRLPRPRPRPPFQPRP was tested, and the “shrunken log2 fold change” value was 0.0582.
With RRIRSRPPRLPRPRPRPFFPPRP the “shrunken log2 fold change” value was -0.196.
For RRIRQRPPRLPRPRPRPQVCPRP, the “shrunken log2 fold change” value was 0.0103.
For RRIRYRPPRLPRPRPRPISQPRP, the “shrunken log2 fold change” value was -0.299.
In the case of RRIRHRPPRLPRPRPRPYMHPRP, the “shrunken log2 fold change” value is reported as -0.448.
RRIRPRPPRLPRPRPRPRRQPRP was tested, and the “shrunken log2 fold change” value was 0.673.
With RRIRLRPPRLPRPRPRPLQWPRP the “shrunken log2 fold change” value was 0.126.
For RRIRGRPPRLPRPRPRPNSFPRP, the “shrunken log2 fold change” value was -0.0356.
With RRIRDRPPRLPRPRPRPFWSPRP the “shrunken log2 fold change” value was 0.000201.
With RRIRARPPRLPRPRPRPKGWPRP the “shrunken log2 fold change” value was 0.862.
In the case of RRIRKRPPRLPRPRPRPMGQPRP, the “shrunken log2 fold change” value is reported as 0.0265.
In the case of RRIRVRPPRLPRPRPRPYSSPRP, the “shrunken log2 fold change” value is reported as -0.644.
In the case of RRIRMRPPRLPRPRPRPWTVPRP, the “shrunken log2 fold change” value is reported as -0.248.
RRIRHRPPRLPRPRPRPEKEPRP was tested, and the “shrunken log2 fold change” value was -0.00451.
In the case of RRIRNRPPRLPRPRPRPWSYPRP, the “shrunken log2 fold change” value is reported as -0.0175.
In the case of RRIRWRPPRLPRPRPRPMKNPRP, the “shrunken log2 fold change” value is reported as 0.226.
With RRIRYRPPRLPRPRPRPRWRPRP the “shrunken log2 fold change” value was 0.585.
For RRIRWRPPRLPRPRPRPVAQPRP, the “shrunken log2 fold change” value was 0.386.
RRIRPRPPRLPRPRPRPPFRPRP was tested, and the “shrunken log2 fold change” value was 0.529.
With RRIRFRPPRLPRPRPRPEMYPRP the “shrunken log2 fold change” value was -0.00146.
With RRIRYRPPRLPRPRPRPGDAPRP the “shrunken log2 fold change” value was 0.0773.
For RRIRSRPPRLPRPRPRPCNNPRP, the “shrunken log2 fold change” value was -0.332.
With RRIRPRPPRLPRPRPRPDHNPRP the “shrunken log2 fold change” value was -0.675.
RRIRKRPPRLPRPRPRPHYKPRP was tested, and the “shrunken log2 fold change” value was -0.446.
RRIRRRPPRLPRPRPRPFQEPRP was tested, and the “shrunken log2 fold change” value was -0.264.
With RRIRWRPPRLPRPRPRPSFRPRP the “shrunken log2 fold change” value was -0.261.
RRIRHRPPRLPRPRPRPTDDPRP was tested, and the “shrunken log2 fold change” value was 0.0853.
In the case of RRIRVRPPRLPRPRPRPVKVPRP, the “shrunken log2 fold change” value is reported as 0.0348.
In the case of RRIRNRPPRLPRPRPRPLLAPRP, the “shrunken log2 fold change” value is reported as 0.253.
With RRIRSRPPRLPRPRPRPCRNPRP the “shrunken log2 fold change” value was -0.273.
In the case of RRIRGRPPRLPRPRPRPIQQPRP, the “shrunken log2 fold change” value is reported as 0.0149.
With RRIRARPPRLPRPRPRPEGGPRP the “shrunken log2 fold change” value was 0.872.
With RRIRRRPPRLPRPRPRPMQCPRP the “shrunken log2 fold change” value was 0.00703.
For RRIRWRPPRLPRPRPRPYRWPRP, the “shrunken log2 fold change” value was -0.0731.
RRIRLRPPRLPRPRPRPRFLPRP was tested, and the “shrunken log2 fold change” value was -0.144.
In the case of RRIRHRPPRLPRPRPRPYCEPRP, the “shrunken log2 fold change” value is reported as -0.114.
For RRIRPRPPRLPRPRPRPLIVPRP, the “shrunken log2 fold change” value was -0.406.
RRIRCRPPRLPRPRPRPRHPPRP was tested, and the “shrunken log2 fold change” value was 0.11.
For RRIRVRPPRLPRPRPRPYNEPRP, the “shrunken log2 fold change” value was -0.429.
In the case of RRIRVRPPRLPRPRPRPMYQPRP, the “shrunken log2 fold change” value is reported as -0.342.
RRIRIRPPRLPRPRPRPEGVPRP was tested, and the “shrunken log2 fold change” value was 0.115.
For RRIRWRPPRLPRPRPRPQDCPRP, the “shrunken log2 fold change” value was -0.014.
